In PMC5705180 one finds Kd data, which are given here for 3 substances.

The target of the test is Recombinant human IGF-II R (CI-MPR), cation-independent mannose-6-phosphate receptor (human) (UniProt P11717). Kind of test: SPR.
For “Bis-phosphoglycoprotein 30: bovine ribonuclease B carrying a bis-M6P-Man6GlcNAc2 glycan at Asn-34 (from UniProt P61823 27-150) (enzyme)”, the Kd worked out at 28.9 nM.
As for “Cyclic phosphoglycopeptide 34: HIV-1 ZM109 V1V2 cyclic peptide carrying two bis-M6P-Man6GlcNAc2 glycans at N160 and N173”, the figure is 2.35 nM.
In the case of “Phosphoglycoprotein 32: bovine ribonuclease B carrying the unnatural bis-M6P Man3GlcNAc2 glycan (from UniProt P61823 27-150) (enzyme)” it was 168 nM.
